According to patent US20090149389A1 (PURDUE RESEARCH FOUNDATION, published 2009):

Tests used:
Assay in all cases: cell-based or functional assay
IRAK4 (h) = molecular target: T1, IRAK4 (h) (human (h), UniProt Q9NWZ3 1-460, limits assumed)
T1 sequence (looked up): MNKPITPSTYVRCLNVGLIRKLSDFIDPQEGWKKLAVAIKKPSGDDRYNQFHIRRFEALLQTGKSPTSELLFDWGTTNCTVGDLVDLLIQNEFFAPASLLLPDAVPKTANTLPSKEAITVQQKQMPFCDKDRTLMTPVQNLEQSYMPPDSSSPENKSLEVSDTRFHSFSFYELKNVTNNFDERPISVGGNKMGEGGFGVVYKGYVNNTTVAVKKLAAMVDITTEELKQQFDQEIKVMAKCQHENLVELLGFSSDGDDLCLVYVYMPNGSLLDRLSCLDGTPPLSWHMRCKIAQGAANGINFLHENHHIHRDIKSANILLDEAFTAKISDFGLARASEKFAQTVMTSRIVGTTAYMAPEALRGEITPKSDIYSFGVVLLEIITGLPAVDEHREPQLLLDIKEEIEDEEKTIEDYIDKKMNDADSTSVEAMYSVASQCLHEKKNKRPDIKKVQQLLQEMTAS

PKA (h) = PKA (h) (human (h), UniProt P17612 1-351)
Rsk2 (h) = Rsk2 (h) (human (h), UniProt P51812 1-740)
Sequence of Rsk2 (h) (P51812 whole entry): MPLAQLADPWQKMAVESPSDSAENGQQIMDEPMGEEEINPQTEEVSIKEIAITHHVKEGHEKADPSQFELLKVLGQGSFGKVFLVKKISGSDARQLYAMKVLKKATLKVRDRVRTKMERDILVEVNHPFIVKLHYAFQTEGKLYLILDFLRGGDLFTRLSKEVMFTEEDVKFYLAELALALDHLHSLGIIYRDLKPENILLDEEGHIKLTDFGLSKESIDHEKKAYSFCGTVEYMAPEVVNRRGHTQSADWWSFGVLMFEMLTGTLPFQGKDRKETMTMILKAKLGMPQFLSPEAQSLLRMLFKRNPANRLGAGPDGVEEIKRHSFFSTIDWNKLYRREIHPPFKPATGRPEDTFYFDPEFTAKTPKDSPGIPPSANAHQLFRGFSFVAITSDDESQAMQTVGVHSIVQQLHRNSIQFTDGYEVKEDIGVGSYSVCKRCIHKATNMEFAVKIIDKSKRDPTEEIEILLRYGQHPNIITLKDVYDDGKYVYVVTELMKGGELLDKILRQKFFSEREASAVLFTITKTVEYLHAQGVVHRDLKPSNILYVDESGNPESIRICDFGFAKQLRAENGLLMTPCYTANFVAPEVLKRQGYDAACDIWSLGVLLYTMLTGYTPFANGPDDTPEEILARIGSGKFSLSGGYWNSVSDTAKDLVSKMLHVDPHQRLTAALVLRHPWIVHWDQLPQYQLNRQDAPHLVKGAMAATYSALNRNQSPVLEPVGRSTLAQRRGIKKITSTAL

WLRRIKAWLRRIKALNRQLGVAA
Profile-1 @ = 30 µm (kinase profiler assay) (IRAK4 (h)): 12
Profile-1 @ = 30 µm (kinase profiler assay) (PKA (h)): 80
Profile-1 @ = 30 µm (kinase profiler assay) (Rsk2 (h)): 14
